The results in this text go back to the supplement of paper PMC10724198.

The test system of the data set is Saccharomyces cerevisiae. The experiment in a line: protein stability index of tFT-peptide fusion (C-terminal peptide) (PSI (0-1 scale)); higher = more stable (slower turnover). To be noted: temperature: 30 C. On the procedure: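 MPS profiling in S. cerevisiae of the yeast C-terminome library: the last 12 aa of each annotated ORF are fused to the C-terminus of a sfGFP-mCherry timer, after a GGGS linker. Cells are FACS-sorted into 8 mCherry/sfGFP bins and deep-sequenced. PSI runs from 0 (unstable) to 1 (stable); wild type and das1Δ backgrounds, two technical replicates each.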

Setting [1] is: genetic background: das1 deletion.

± gives the standard deviation of the averaged measurements.

Turning to SSFSLSLPRLNQ [SPT7 C-terminal 12 aa], the protein stability index under setting [1] worked out at 0.6893 ± 0.0022 and the protein stability index (genetic background: wild type) was determined as 0.675 ± 0.028.

With SSIQDLLSKLAN [RTT103 C-terminal 12 aa], the protein stability index reads like this: under setting [1], 0.691 ± 0.02; (genetic background: wild type) 0.7927 ± 0.0052.

SSLPYDILPALL [YGL199C C-terminal 12 aa]: the protein stability index was 0.703 ± 0.004 under setting [1] and 0.6882 ± 0.0011 (genetic background: wild type).

On to SSSSTSSSATKN [TPS1 C-terminal 12 aa], for which the protein stability index is, setting by setting: under setting [1], 0.703 ± 0.017; (genetic background: wild type) 0.685 ± 0.047.

As for STFSKPFSTISK [VHR2 C-terminal 12 aa], the protein stability index under setting [1] was 0.6906 ± 0.0026 and the protein stability index (genetic background: wild type) came out at 0.682 ± 0.059.

On to STHGPGIVIDFA [MRPL1 C-terminal 12 aa], for which the protein stability index is, setting by setting: under setting [1], 0.724 ± 0.011; (genetic background: wild type) 0.761 ± 0.089.

Turning to STLAGEWRLIIA [YBR284W C-terminal 12 aa], the protein stability index was 0.498 ± 0.0089 under setting [1] and 0.518 ± 0.019 (genetic background: wild type).

Regarding SVSDPVKSEDSS [NCB2 C-terminal 12 aa], the protein stability index was 0.68 ± 0.034 under setting [1] and 0.689 ± 0.033 (genetic background: wild type).

SVYEHEHEKTFI [FUR4 C-terminal 12 aa]: the protein stability index is 0.7127 ± 0.0018 under setting [1] and 0.706 ± 0.0091 (genetic background: wild type).

As to SWSGDNEAHRWT [NPT1 C-terminal 12 aa], the protein stability index worked out at 0.716 ± 0.023 under setting [1] and 0.686 ± 0.016 (genetic background: wild type).

Consider TAEEQEQSACQC [YPT6 C-terminal 12 aa], for which the protein stability index runs as follows: under setting [1], 0.6863 ± 0.0043; (genetic background: wild type) 0.687 ± 0.021.

The sequence TAESDDDEEDDE [TIF5 C-terminal 12 aa] returned a protein stability index under setting [1] of 0.688 ± 0.026 and a protein stability index (genetic background: wild type) of 0.709 ± 0.052.

For TATSSSIILSDK [SSN2 C-terminal 12 aa], the protein stability index under setting [1] was 0.713 ± 0.032 and the protein stability index (genetic background: wild type) was determined as 0.665 ± 0.045.

Regarding TDELWEMLLDQA [MET12 C-terminal 12 aa], the protein stability index reads like this: under setting [1], 0.762 ± 0.039; (genetic background: wild type) 0.723 ± 0.072.

TELRHKRTGGKH [ILV2 C-terminal 12 aa]: the protein stability index runs as follows: under setting [1], 0.691 ± 0.0092; (genetic background: wild type) 0.7268 ± 0.002.

With TGKDVMKGALGF [SRO7 C-terminal 12 aa], the protein stability index by setting is: under setting [1], 0.6953 ± 0.0023; (genetic background: wild type) 0.667 ± 0.024.

On to TGRDMMKSAVGF [SRO77 C-terminal 12 aa], for which the protein stability index is, setting by setting: under setting [1], 0.714 ± 0.015; (genetic background: wild type) 0.661 ± 0.016.

For the sequence TGTSTEAPSAAN [NCL1 C-terminal 12 aa], the protein stability index was 0.6661 ± 0.00092 under setting [1] and 0.6578 ± 0.0053 (genetic background: wild type).

Turning to THQKKIAKKKHQ [YPR015C C-terminal 12 aa], the protein stability index was 0.741 ± 0.053 under setting [1] and 0.695 ± 0.014 (genetic background: wild type).

In the case of TIITKYEMLVRT [YOL134C C-terminal 12 aa], the protein stability index amounted to 0.52 ± 0.015 under setting [1] and 0.5399 ± 0.0028 (genetic background: wild type).

With TKKSSSHHRTGK [DIG1 C-terminal 12 aa], the protein stability index reads like this: under setting [1], 0.697 ± 0.014; (genetic background: wild type) 0.688 ± 0.016.

Consider TLEDEALQRNSK [JNM1 C-terminal 12 aa], for which the protein stability index is 0.722 ± 0.0093 under setting [1] and 0.686 ± 0.017 (genetic background: wild type).

On to TLNVSNISHYSL [GAL80 C-terminal 12 aa], for which the protein stability index runs as follows: under setting [1], 0.7033 ± 0.0016; (genetic background: wild type) 0.704 ± 0.0075.

Sequence TLQSEINISVKH [ENA5 C-terminal 12 aa] gave a protein stability index under setting [1] of 0.671 ± 0.0081 and a protein stability index (genetic background: wild type) of 0.6909 ± 0.0042.

For TLTDLRDELRGL [NUP120 C-terminal 12 aa], the protein stability index by setting is: under setting [1], 0.678 ± 0.018; (genetic background: wild type) 0.721 ± 0.024.

Turning to TLWNDNTSYPFL [PDR3 C-terminal 12 aa], the protein stability index under setting [1] is 0.756 ± 0.015 and the protein stability index (genetic background: wild type) turned out to be 0.7571 ± 0.0029.

On to TNDSFNIVALTP [PRP19 C-terminal 12 aa], for which the protein stability index is 0.68811 ± 0.00023 under setting [1] and 0.654 ± 0.017 (genetic background: wild type).

With TPENNHLKWLIK [UGX2 C-terminal 12 aa], the protein stability index worked out at 0.716 ± 0.024 under setting [1] and 0.685 ± 0.035 (genetic background: wild type).

Consider TPKPVDTDDEED [NEW1 C-terminal 12 aa], for which the protein stability index worked out at 0.685 ± 0.023 under setting [1] and 0.707 ± 0.035 (genetic background: wild type).

Regarding TPLGQTLLDSRR [DAL1 C-terminal 12 aa], the protein stability index stood at 0.6757 ± 0.0015 under setting [1] and 0.67 ± 0.011 (genetic background: wild type).

As for TPQEILQRFQKQ [EAF1 C-terminal 12 aa], the protein stability index under setting [1] came to 0.6812 ± 0.0053 and the protein stability index (genetic background: wild type) is 0.732 ± 0.029.

As for TQSTVIATTSSV [NDL1 C-terminal 12 aa], the protein stability index came out at 0.6904 ± 0.0063 under setting [1] and 0.694 ± 0.027 (genetic background: wild type).

TRDAPRERSPTR [NPL3 C-terminal 12 aa]: the protein stability index is, setting by setting: under setting [1], 0.716 ± 0.016; (genetic background: wild type) 0.65 ± 0.018.

On to TRFFDSKYFGCD [URK1 C-terminal 12 aa], for which the protein stability index was determined as 0.701 ± 0.0078 under setting [1] and 0.73 ± 0.072 (genetic background: wild type).

TRSAWDRAQRRL [LCP5 C-terminal 12 aa]: the protein stability index came to 0.697 ± 0.015 under setting [1] and 0.674 ± 0.013 (genetic background: wild type).

As for TSAGSNIFSTGQ [BBP1 C-terminal 12 aa], the protein stability index reads like this: under setting [1], 0.699 ± 0.011; (genetic background: wild type) 0.752 ± 0.043.

Regarding “TSASSNLDDSFS [YPR002C-A C-terminal 12 aa]”, the protein stability index by setting is: under setting [1], 0.69 ± 0.019; (genetic background: wild type) 0.6996 ± 0.002.

Consider “TSGFCSLETSAE [YER023C-A C-terminal 12 aa]”, for which the protein stability index under setting [1] worked out at 0.697 ± 0.0079 and the protein stability index (genetic background: wild type) is 0.735 ± 0.057.

With “TSGGSIVLKGSS [YGR068W-A C-terminal 12 aa]”, the protein stability index by setting is: under setting [1], 0.701 ± 0.026; (genetic background: wild type) 0.6688 ± 0.0037.

Regarding TSNDLPAECVIS [EGH1 C-terminal 12 aa], the protein stability index reads like this: under setting [1], 0.72 ± 0.0097; (genetic background: wild type) 0.68843 ± 0.00034.

In the case of TSNNIFGSDQKY [MNN14 C-terminal 12 aa], the protein stability index stood at 0.694 ± 0.016 under setting [1] and 0.741 ± 0.037 (genetic background: wild type).

In the case of TSSTPKSPSSGS [SMY1 C-terminal 12 aa], the protein stability index amounted to 0.691 ± 0.018 under setting [1] and 0.67 ± 0.014 (genetic background: wild type).

Take “TSTLAVIPYPAF [YLR466C-B C-terminal 12 aa]”: the protein stability index turned out to be 0.7177 ± 0.0022 under setting [1] and 0.755 ± 0.045 (genetic background: wild type).

Take TTLCILFLFFTW [GOS1 C-terminal 12 aa]: the protein stability index reads like this: under setting [1], 0.386 ± 0.0071; (genetic background: wild type) 0.401 ± 0.014.

Regarding TTVPIVSKKRQK [POP3 C-terminal 12 aa], the protein stability index is, setting by setting: under setting [1], 0.685 ± 0.033; (genetic background: wild type) 0.699 ± 0.01.

Take TVNLIKSQLVRG [COQ9 C-terminal 12 aa]: the protein stability index is 0.6064 ± 0.0011 under setting [1] and 0.635 ± 0.047 (genetic background: wild type).

TVRALNPFMKRV [SSD1 C-terminal 12 aa] had a protein stability index under setting [1] of 0.689 ± 0.046 and a protein stability index (genetic background: wild type) of 0.656 ± 0.039.

With TYCEKYHVPSIQ [YAE1 C-terminal 12 aa], the protein stability index was determined as 0.6915 ± 0.0042 under setting [1] and 0.677 ± 0.04 (genetic background: wild type).

In the case of TYFSKQFLKKEL [LTP1 C-terminal 12 aa], the protein stability index by setting is: under setting [1], 0.746 ± 0.017; (genetic background: wild type) 0.742 ± 0.009.

As for TYRLGEWSKISV [POP1 C-terminal 12 aa], the protein stability index is, setting by setting: under setting [1], 0.694 ± 0.011; (genetic background: wild type) 0.6913 ± 0.0047.

In turn, VAAKIAALAGQQ [RPL5 C-terminal 12 aa] displayed a protein stability index under setting [1] of 0.708 ± 0.026 and a protein stability index (genetic background: wild type) of 0.717 ± 0.028.

With VAQNPVLAAVIA [KAP123 C-terminal 12 aa], the protein stability index turned out to be 0.455 ± 0.013 under setting [1] and 0.466 ± 0.015 (genetic background: wild type).

VARLKDESENVW [COX16 C-terminal 12 aa]: the protein stability index is 0.689 ± 0.018 under setting [1] and 0.732 ± 0.041 (genetic background: wild type).

Turning to VAVASASSSASS [VPH1 C-terminal 12 aa], the protein stability index reads like this: under setting [1], 0.683 ± 0.019; (genetic background: wild type) 0.682 ± 0.032.

For the sequence VDDIVSGVRKQE [CCT3 C-terminal 12 aa], the protein stability index is, setting by setting: under setting [1], 0.691 ± 0.028; (genetic background: wild type) 0.677 ± 0.011.

Consider VDDSDGDETMQI [TDA1 C-terminal 12 aa], for which the protein stability index is, setting by setting: under setting [1], 0.70725 ± 0.00053; (genetic background: wild type) 0.7369 ± 0.0011.

For VEDQSIEVKKEK [YPC1 C-terminal 12 aa], the protein stability index by setting is: under setting [1], 0.684 ± 0.035; (genetic background: wild type) 0.7136 ± 0.007.

In the case of VEFKYPEEIFHG [TPP1 C-terminal 12 aa], the protein stability index runs as follows: under setting [1], 0.712 ± 0.012; (genetic background: wild type) 0.6782 ± 0.0027.

VEGGGVQYTIVS [YDL023C C-terminal 12 aa]: the protein stability index reads like this: under setting [1], 0.679 ± 0.0039; (genetic background: wild type) 0.669 ± 0.0067.

For the sequence VEVEYLLRRLEE [ARO7 C-terminal 12 aa], the protein stability index is, setting by setting: under setting [1], 0.691 ± 0.013; (genetic background: wild type) 0.6589 ± 0.0044.

In the case of VFKMIMFIASNE [STU1 C-terminal 12 aa], the protein stability index reads like this: under setting [1], 0.581 ± 0.0076; (genetic background: wild type) 0.5559 ± 0.0028.

In turn, “VFLIISQHSLHS [YBL113W-A C-terminal 12 aa]” returned a protein stability index under setting [1] of 0.6652 ± 0.0044 and a protein stability index (genetic background: wild type) of 0.646 ± 0.029.

On to VFTRLYSTLWSY [YDR149C C-terminal 12 aa], for which the protein stability index was 0.6867 ± 0.0054 under setting [1] and 0.145 ± 0.0086 (genetic background: wild type).

Consider VIKCFTSSDMTS [NAG1 C-terminal 12 aa], for which the protein stability index stood at 0.701 ± 0.026 under setting [1] and 0.683 ± 0.053 (genetic background: wild type).

VKDFYKRLETLK [RRM3 C-terminal 12 aa]: the protein stability index reads like this: under setting [1], 0.6914 ± 0.0038; (genetic background: wild type) 0.7042 ± 0.0011.

For VKNVLSKVVPPV [MTC2 C-terminal 12 aa], the protein stability index was determined as 0.688 ± 0.0078 under setting [1] and 0.669 ± 0.04 (genetic background: wild type).

As for VKPSQDNVDSKD [OPI1 C-terminal 12 aa], the protein stability index amounted to 0.687 ± 0.0096 under setting [1] and 0.668 ± 0.022 (genetic background: wild type).
